In paper PMC9097459:
Each block holds one molecule with its values, some of them ahead of it.

Key:
[1] = target: FlSp NTTrp (Phe 11 to Trp mutant of FlSp NT) (Nephila clavipes); test: SEC; Superdex 75 Increase 10/300 GL, 200 μl of 2 mg/ml protein, 20 mM MES, 154 mM NaCl, 1 mM EDTA, pH 5.5; apparent MW from calibrants; monomer to dimer
[2] = target: WT FlSp NT (N-terminal domain of flagelliform spidroin from Nephila clavipes) (Nephila clavipes); test: as above
[3] = target: WT FlSp NT (N-terminal domain of flagelliform spidroin from Nephila clavipes) (Nephila clavipes); test: SEC-MALS; Superdex 75 Increase 10/300 GL, 50 μg loaded, 20 mM MES, 150 mM NaCl, 1 mM EDTA, pH 5.5, room temperature; monomer to dimer
[4] = target: FlSp NT* (constitutive monomer mutant, Asp 41 and Lys 65 swapped); test: SEC-MALS; settings: Superdex 75 increase SEC column
[5] = target: FlSp NT_(E79QE84QE119Q) (Nephila clavipes); test: SEC-MALS; Superdex 75 Increase 10/300 GL, 50 μg loaded, 20 mM MES, 150 mM NaCl, 1 mM EDTA, pH 5.5, room temperature; monomer to dimer
FlSp NT_(E79QE84QE119Q) = test: SEC-MALS; settings: Superdex 75 increase SEC column
[6] = target: T1, FlSp NT_(E79QE84QE119QE130Q); test: SEC-MALS; settings: chain shown with the change, Superdex 75 increase SEC column
T1 chain: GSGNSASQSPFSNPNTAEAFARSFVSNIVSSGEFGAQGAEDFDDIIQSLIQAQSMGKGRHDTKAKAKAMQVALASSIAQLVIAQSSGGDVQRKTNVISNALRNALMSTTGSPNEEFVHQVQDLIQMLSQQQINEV

[7] = pH 5.5 versus pH 8.0, parent: 2.0

apparent MW ratio between pH 5.5 and 8.0 [1]: 1.2
Molecule: FlSp NTTrp (Phe 11 to Trp mutant of FlSp NT) (domain or fragment)

apparent MW ratio between dimer (pH 5.5) and monomer (pH 8.0) [2]: 1.3
stoichiometry N [3]: 2
Molecule: WT FlSp NT (N-terminal domain of flagelliform spidroin from Nephila clavipes) (domain or fragment)

other: molecular mass by SEC-MALS ([4]; pH 5.5, parent: 26.0): 13.4 kDa
other: MW ratio between pH 5.5 and pH 8.0 [4, 7]: 1
other: molecular mass by SEC-MALS ([4]; pH 8.0, parent: 13.1): 14.1 kDa
Molecule: WT FlSp NT (N-terminal domain of flagelliform spidroin from Nephila clavipes) D41K; K65D

MW ratio between pH 5.5 and 8.0 [5]: 1.7
Molecule: FlSp NT_(E79QE84QE119Q) (domain or fragment)

other: molecular mass by SEC-MALS (FlSp NT_(E79QE84QE119Q); pH 5.5, parent: 26.0): 24.4 kDa
other: molecular mass by SEC-MALS (FlSp NT_(E79QE84QE119Q); pH 8.0, parent: 13.1): 14.3 kDa
Molecule: WT FlSp NT (N-terminal domain of flagelliform spidroin from Nephila clavipes) E79Q; E84Q; E119Q

other: molecular mass by SEC-MALS ([6]; pH 5.5, parent: 26.0): 20.7 kDa
other: MW ratio between pH 5.5 and pH 8.0 [6, 7]: 1.6
other: molecular mass by SEC-MALS ([6]; pH 8.0, parent: 13.1): 13.1 kDa
B1: WT FlSp NT (N-terminal domain of flagelliform spidroin from Nephila clavipes) E79Q; E84Q; E119Q; E130Q (protein)
chain: GSGNSASQSPFSNPNTAEAFARSFVSNIVSSGEFGAQGAEDFDDIIQSLIQAQSMGKGRHDTKAKAKAMQVALASSIAQLVIAQSSGGDVQRKTNVISNALRNALMSTTGSPNEEFVHQVQDLIQMLSQQQINEV
